# In patent US20080004215:
# B1: purified glutathione S-transferase (GST) fusion of the phosphatase domain of SHP2 (protein)
# chain: GFWEEFETLQQQECKLLYSRKEGQRQENKNKNRYKNILPFDHTRVVLHDGDPNEPVSDYINANIIMPEFETKCNNSKPKKSYIATQGCLQNTVNDFWRMVFQENSRVIVMTTKEVERGKSKCVKYWPDEYALKEYGVMRVRNVKESAAHDYTLRELKLSKVGQGNTERTVWQYHFRTWPDHGVPSDPGGVLDFLEEVHHKQESIMDAGPVVVHCSAGIGRTGTFIVIDILIDIIREKGVDCDIDVPKTIQMVRSQRSGMVQTEAQYRFIYMAVQHYIETLQRRIEEEQKSKRKGHEYTNIKYSLADQTSGDQSPLPPCTPTPPCAEMREDSARVYENVGLMQQQKSFR
# Columns and labels:
# [1] = biological target: WGMDY1 (WGMDY1 fused to a 10-mer cell-penetrating peptide sequence of HIV tat-1 protein, unphosphorylated form)
# [2] = biological target: pWGMDY1 (WGMDY1 fused to a 10-mer cell-penetrating peptide sequence of HIV tat-1 protein, phosphorylated form)
protein,measurement,setting,value
B1,"in vitro phosphatase assay: dephosphorylation of para-nitrophenolphosphate (pN) by P, absorbance (OD) at 405 nm at the 5 minutes time point",[1],"Addition of pWGMDY1, but not WGMDY1, inhibited the dephosphorylation reaction"
same,"in vitro phosphatase assay: dephosphorylation of para-nitrophenolphosphate (pN) by P, absorbance (OD) at 405 nm at the 5 minutes time point",[2],"Addition of pWGMDY1, but not WGMDY1, inhibited the dephosphorylation reaction"
